Laboratory results taken from patent US20130217572A1, “SPECIFIC DELIVERY OF AGROCHEMICALS” (VRIJE UNIVERSITEIT BRUSSEL, priority 2010, published 2013).

Key:
potato lectin (Sigma) [1] = target: T1, potato lectin (Sigma) (potato, UniProt Q9S8M0 23-323); test: VHH-coupled Uvitex microcapsules retained on potato lectin-coated wells; 4% surface coverage
T1 construct: Bought glycoprotein, coated on ELISA plates
T1 sequence (looked up): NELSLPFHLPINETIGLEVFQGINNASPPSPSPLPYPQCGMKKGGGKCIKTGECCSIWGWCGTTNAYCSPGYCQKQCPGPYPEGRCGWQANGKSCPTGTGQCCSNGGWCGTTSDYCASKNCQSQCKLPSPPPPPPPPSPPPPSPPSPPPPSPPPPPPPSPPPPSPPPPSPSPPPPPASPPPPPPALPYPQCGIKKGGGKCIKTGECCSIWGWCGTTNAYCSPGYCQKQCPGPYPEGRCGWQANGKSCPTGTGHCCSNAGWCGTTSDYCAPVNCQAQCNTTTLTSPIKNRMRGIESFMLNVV

potato lectin (Sigma) [2] = target: T1, potato lectin (Sigma); test: VHH-coupled Uvitex microcapsules retained on potato lectin-coated wells; 20% surface coverage
potato lectin (Sigma) [3] = target: T1, potato lectin (Sigma); test: VHH-coupled Uvitex microcapsules retained on potato lectin-coated wells; 100% surface coverage
potato lectin (Sigma) [4] = target: T1, potato lectin (Sigma); test: VHH-coupled Uvitex OB microcapsules retained on potato lectin-coated wells; 4% surface coverage
potato lectin (Sigma) [5] = target: T1, potato lectin (Sigma); test: VHH-coupled Uvitex OB microcapsules retained on potato lectin-coated wells; 20% surface coverage
potato lectin (Sigma) [6] = target: T1, potato lectin (Sigma); test: VHH-coupled Uvitex OB microcapsules retained on potato lectin-coated wells; 100% surface coverage
potato lectin (Sigma) [7] = target: T1, potato lectin (Sigma); test: VHH-coupled lambda-cyhalothrin microcapsules retained on potato lectin-coated wells; 4% surface coverage
potato lectin (Sigma) [8] = target: T1, potato lectin (Sigma); test: VHH-coupled lambda-cyhalothrin microcapsules retained on potato lectin-coated wells; 20% surface coverage
potato lectin (Sigma) [9] = target: T1, potato lectin (Sigma); test: VHH-coupled lambda-cyhalothrin microcapsules retained on potato lectin-coated wells; 100% surface coverage

surface area of bound microcapsules (potato lectin (Sigma) [1]): 19.2
surface area of bound microcapsules (potato lectin (Sigma) [2]): 43.5
surface area of bound microcapsules (potato lectin (Sigma) [3]): 142
area of bound microcapsules (potato lectin (Sigma) [4]): 7.53
area of bound microcapsules (potato lectin (Sigma) [5]): 35.4
area of bound microcapsules (potato lectin (Sigma) [6]): 16.7
counts of bound microcapsules (microcapsules) (potato lectin (Sigma) [7]): 348
counts of bound microcapsules (microcapsules) (potato lectin (Sigma) [8]): 709
counts of bound microcapsules (microcapsules) (potato lectin (Sigma) [9]): 828
Substance: unrelated VHH
